The target of one assay is T1, human CD63 (human, UniProt P08962 2-238).
T1 sequence: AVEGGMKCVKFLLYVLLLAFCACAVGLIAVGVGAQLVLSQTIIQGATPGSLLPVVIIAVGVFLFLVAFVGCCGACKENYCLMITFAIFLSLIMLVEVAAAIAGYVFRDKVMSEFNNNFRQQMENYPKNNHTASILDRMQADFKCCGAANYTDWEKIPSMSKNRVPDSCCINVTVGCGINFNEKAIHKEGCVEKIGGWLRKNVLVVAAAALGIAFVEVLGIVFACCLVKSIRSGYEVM
In words: cell-based or functional assay.

In assay [1] the target is T2, recombinant human CD63 extracellular loop 2 expressed with a C-terminal Myc-Myc-hexahistidine (human).
T2 construct: also called hCD63 EC loop 2-MMH; human CD63 EC loop 2-MMH
The experiment in a line: SPR Biacore, mAb captured, 25C. The gist of the method:
(§1)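 Anti-CD63 mAbs captured on anti-mouse Fc or anti-human Fab surfaces; CD63 EC2 reagents flowed in HBS-ET, pH 7.4, at 25° C or 37° C. ka and kd from 1:1 binding model with mass transport limitation; KD and t½ calculated from kinetic rates.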

Assay [2] has as its target T3, recombinant human CD63 extracellular loop 2 expressed with a C-terminal human Fc tag (human).
T3 construct: also called hCD63 EC loop 2-hFc; human CD63 EC loop 2-Fc
The experiment in a line: SPR Biacore, mAb captured, 25C. The method, boiled down:
as §1

Assay [3] deals with T2, recombinant human CD63 extracellular …. In words: SPR Biacore, mAb captured, 37C. The method, boiled down:
as §1

The target in assay [4] is T3, recombinant human CD63 extracellular …. The experiment in a line: SPR Biacore, mAb captured, 37C. The gist of the method:
as §1

Where a chain is given by its changes, count along the chain named.

T2 sequence (chain, as listed by the source limits assumed): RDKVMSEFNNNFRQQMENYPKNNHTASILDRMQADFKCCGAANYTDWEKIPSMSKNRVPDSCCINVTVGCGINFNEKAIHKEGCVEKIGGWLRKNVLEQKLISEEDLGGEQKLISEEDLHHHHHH
T3 sequence (chain, as listed by the source limits assumed): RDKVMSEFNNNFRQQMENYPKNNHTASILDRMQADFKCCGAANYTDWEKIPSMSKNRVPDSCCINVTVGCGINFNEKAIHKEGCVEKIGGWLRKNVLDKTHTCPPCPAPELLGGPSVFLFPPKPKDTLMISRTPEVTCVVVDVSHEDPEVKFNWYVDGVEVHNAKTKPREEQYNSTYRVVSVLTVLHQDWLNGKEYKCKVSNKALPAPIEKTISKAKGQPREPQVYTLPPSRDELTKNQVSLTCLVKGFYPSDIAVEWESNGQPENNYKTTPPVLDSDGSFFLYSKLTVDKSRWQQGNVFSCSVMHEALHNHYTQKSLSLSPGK

B1: H2M12450N (antibody, V domains shown)
VH: QVQLQESGPKVVKPSETLSLTCTVSGGSISSYYWNWIRQSPGKGLEWIGYTKRGYTDYNPSLRSRVTISEDTSKNQFSLRISSVTAADTAVYYCAQMGWGSHAFDMWGQGTMVAVSS
VL: EIVLTQSPGTLSLSPGERATLSCRASQSVNSRYLAWYQQKPGQAPRLLIYGASSRATGIPDRCSGSGSGTDFTLTISRLEPEDFAVYYCQQYGSSPWTFGQGTKVEIK
notes: also called H2aM12450N; mAb12450
Regarding B1, in the assay with human CD63, the “T47D (nM) IC50, indirect cytotoxicity with Fab anti-mFc-MMAF” value is 0.24 nM. Also, in assay [1], the “100 nM Ag Bound (RU)” value was 65 RU, the dissociation constant Kd was 1.23 nM, the koff is 0.000279 s⁻¹ and the kon is 227000 M⁻¹ s⁻¹. Also, in assay [1], the t1/2 turned out to be 41 min. Besides, in assay [2], the “100 nM Ag Bound (RU)” value was found to be 134 RU, the Kd was 0.15 nM, the koff was 4.66e-05 s⁻¹ and the kon was 320000 M⁻¹ s⁻¹. Besides, the t1/2 in assay [2] is 248 min. For the same molecule, in assay [3], the “100 nM Ag Bound (RU)” value worked out at 58 RU, the Kd is 1.15 nM, the koff worked out at 0.000201 s⁻¹ and the kon worked out at 175000 M⁻¹ s⁻¹. The t1/2 in assay [3] is 57 min. In assay [4], the “100 nM Ag Bound (RU)” value turned out to be 138 RU, the Kd came out at 0.119 nM, the koff came to 4.89e-05 s⁻¹ and the on-rate constant (kon) is 411000 M⁻¹ s⁻¹. In addition, the t1/2 in assay [4] turned out to be 236 min.

B2: H1M12451N (antibody, V domains shown)
VH: QVQLQESGPGLMKPSETLSLTCTVSGGSFSSYYWNWIRQSPGKGLEWIGYIRYSGDTNYKPSLKSRFTISIDTSKNLFSLRLKSVTAADTAVYYCARMGLGSDAFDIWGQGTMVTVSS
VL: B1 VL with S31N, R32N, A52V, S53F, S54N, G58N, C63F
Turning to B2, in assay [1], the “100 nM Ag Bound (RU)” value turned out to be 52 RU, the Kd is 5 nM, the off-rate (koff) was 0.00043 s⁻¹ and the kon was 85900 M⁻¹ s⁻¹. The t1/2 in assay [1] came to 27 min. Also, in assay [2], the “100 nM Ag Bound (RU)” value amounted to 107 RU, the Kd came to 0.704 nM, the koff was 8.4e-05 s⁻¹ and the kon was found to be 119000 M⁻¹ s⁻¹. Moreover, the t1/2 in assay [2] worked out at 138 min. Besides, in assay [3], the “100 nM Ag Bound (RU)” value was 44 RU, the Kd stood at 21.4 nM, the koff was 0.0019 s⁻¹ and the kon is 88900 M⁻¹ s⁻¹. In addition, the t1/2 in assay [3] was 6 min. For the same molecule, in assay [4], the “100 nM Ag Bound (RU)” value came to 118 RU, the Kd was determined as 0.509 nM, the koff is 0.000331 s⁻¹ and the kon was 651000 M⁻¹ s⁻¹. Besides, the t1/2 in assay [4] was 35 min.

B3: H2M12395N (antibody, V domains shown)
VH: QVQLQESGPRLVKPSETLSLTCIVSGGSISNFYWNWIRQSPGKGLEWIGYFFYTGTIDYNPSLKSRVTISLDTSKNQFSLNLRLLTAADAAVYYCARMGLGANAFDIWGHGTMVTVSS
VL: B1 VL with S28H, N30S, R32N, A52G, C63F, E82A, Y87F, S94N, I107M
notes: also called H2aM12395N
For B3, in assay [1], the “100 nM Ag Bound (RU)” value was found to be 42 RU, the Kd was 11 nM, the koff is 0.00182 s⁻¹ and the kon came to 166000 M⁻¹ s⁻¹. In addition, the t1/2 in assay [1] was 6 min. In assay [2], the “100 nM Ag Bound (RU)” value was determined as 117 RU, the Kd was 0.753 nM, the koff worked out at 0.00051 s⁻¹ and the kon turned out to be 677000 M⁻¹ s⁻¹. For the same molecule, in assay [2], the t1/2 was 23 min. For the same molecule, in assay [3], the “100 nM Ag Bound (RU)” value is 31 RU, the Kd was found to be 56.4 nM, the koff worked out at 0.00932 s⁻¹ and the on-rate (kon) worked out at 165000 M⁻¹ s⁻¹. For the same molecule, the t1/2 in assay [3] is 1 min. In assay [4], the “100 nM Ag Bound (RU)” value was determined as 123 RU, the Kd is 3.38 nM, the koff amounted to 0.00179 s⁻¹ and the kon was found to be 529000 M⁻¹ s⁻¹. The t1/2 in assay [4] is 6 min.

Values taken from patent publication US20210079109A1 (Regeneron, published 2021).
